Results: patent US20140341931A1

What was measured:
[1] = target: recombinant sCD27 containing 6x his-Tag at the carboxyl terminus (human) (UniProt P26842); assay: mock depletion on plate coated with control IgG, sCD27 ELISA of the supernatant
Myosin IIA (human) [2] = target: Myosin IIA (human) (UniProt P35579); assay: PolyHis pull-down with sCD27-his as bait from lysate of stimulated PBMCs, SDS-PAGE, mass spectrometry
[3] = target: High mobility group protein B1 (human) (UniProt P09429); assay: as above
Sequence of High mobility group protein B1 (human) (P09429 whole entry): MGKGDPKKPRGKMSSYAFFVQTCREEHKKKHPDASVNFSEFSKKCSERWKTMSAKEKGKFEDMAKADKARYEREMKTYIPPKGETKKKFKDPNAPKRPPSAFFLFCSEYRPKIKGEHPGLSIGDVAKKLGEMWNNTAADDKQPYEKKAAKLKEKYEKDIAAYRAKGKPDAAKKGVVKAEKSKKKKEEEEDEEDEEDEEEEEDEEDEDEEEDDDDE

Myosin IIA (human) [4] = target: Myosin IIA (human) (UniProt P35579); assay: control (background) lane of the PolyHis pull-down, no bait peptides detected, mass spectrometry
[5] = target: High mobility group protein B1 (human) (UniProt P09429); assay: as above

Sequence of Myosin IIA (human) (P35579 2-1960 limits assumed): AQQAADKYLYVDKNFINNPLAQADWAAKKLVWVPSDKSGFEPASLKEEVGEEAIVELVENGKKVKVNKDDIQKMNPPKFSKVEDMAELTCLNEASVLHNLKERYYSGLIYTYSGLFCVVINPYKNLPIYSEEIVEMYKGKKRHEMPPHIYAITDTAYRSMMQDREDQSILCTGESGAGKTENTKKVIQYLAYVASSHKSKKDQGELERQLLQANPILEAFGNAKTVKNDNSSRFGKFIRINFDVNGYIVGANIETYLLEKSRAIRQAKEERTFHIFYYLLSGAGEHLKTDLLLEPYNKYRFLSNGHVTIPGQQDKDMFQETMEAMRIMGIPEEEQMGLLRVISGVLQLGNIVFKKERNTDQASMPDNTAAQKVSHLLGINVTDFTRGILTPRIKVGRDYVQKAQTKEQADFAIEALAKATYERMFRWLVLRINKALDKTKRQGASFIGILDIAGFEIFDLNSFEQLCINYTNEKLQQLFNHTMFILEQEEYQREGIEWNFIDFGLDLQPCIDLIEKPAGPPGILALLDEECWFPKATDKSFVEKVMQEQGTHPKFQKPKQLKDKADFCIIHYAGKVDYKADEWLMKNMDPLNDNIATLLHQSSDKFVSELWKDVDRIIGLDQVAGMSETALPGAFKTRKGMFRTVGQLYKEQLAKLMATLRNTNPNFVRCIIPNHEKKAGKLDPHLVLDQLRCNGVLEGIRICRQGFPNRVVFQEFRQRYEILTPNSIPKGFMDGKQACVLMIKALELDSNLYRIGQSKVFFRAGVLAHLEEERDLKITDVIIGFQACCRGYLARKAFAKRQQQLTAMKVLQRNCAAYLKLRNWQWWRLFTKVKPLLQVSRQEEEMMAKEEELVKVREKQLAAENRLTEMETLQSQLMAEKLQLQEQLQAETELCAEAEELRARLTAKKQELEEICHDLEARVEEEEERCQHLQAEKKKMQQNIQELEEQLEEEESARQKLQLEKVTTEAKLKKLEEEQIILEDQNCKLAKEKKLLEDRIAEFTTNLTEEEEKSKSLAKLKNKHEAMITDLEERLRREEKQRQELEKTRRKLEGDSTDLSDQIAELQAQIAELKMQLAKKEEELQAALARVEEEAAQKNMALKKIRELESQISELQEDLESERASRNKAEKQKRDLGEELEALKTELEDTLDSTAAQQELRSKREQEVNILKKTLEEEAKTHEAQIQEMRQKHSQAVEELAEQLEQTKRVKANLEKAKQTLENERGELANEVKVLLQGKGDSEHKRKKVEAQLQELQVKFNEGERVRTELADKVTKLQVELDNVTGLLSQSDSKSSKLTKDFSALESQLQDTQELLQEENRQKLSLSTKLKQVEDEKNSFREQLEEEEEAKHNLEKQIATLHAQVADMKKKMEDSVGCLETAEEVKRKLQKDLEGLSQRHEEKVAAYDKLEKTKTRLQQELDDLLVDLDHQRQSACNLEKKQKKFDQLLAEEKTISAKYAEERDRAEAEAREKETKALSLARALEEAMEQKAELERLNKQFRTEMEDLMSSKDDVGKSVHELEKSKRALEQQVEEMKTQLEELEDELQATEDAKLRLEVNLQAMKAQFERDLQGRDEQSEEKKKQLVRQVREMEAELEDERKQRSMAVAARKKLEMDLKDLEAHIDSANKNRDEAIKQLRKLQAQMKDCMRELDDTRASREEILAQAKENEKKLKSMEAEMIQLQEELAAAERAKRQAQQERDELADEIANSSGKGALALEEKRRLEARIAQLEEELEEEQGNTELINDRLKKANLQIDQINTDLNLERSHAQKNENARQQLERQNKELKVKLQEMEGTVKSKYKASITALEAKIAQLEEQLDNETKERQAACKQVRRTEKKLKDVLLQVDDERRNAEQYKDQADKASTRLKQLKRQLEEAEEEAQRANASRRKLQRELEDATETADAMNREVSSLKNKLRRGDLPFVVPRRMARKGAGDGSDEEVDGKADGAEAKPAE

| Substance | sCD27 value left after depletion [1] | TPC (total peptide count) in Lane 2 (positive) (Myosin IIA (human) [2]) | TPC (total peptide count) in Lane 2 (positive) [3] | TPC (total peptide count) in Lane 4 (background) (Myosin IIA (human) [4]) | TPC (total peptide count) in Lane 4 (background) [5] |
| --- | --- | --- | --- | --- | --- |
| IgG control (R&D Systems Inc.) (antibody) | 1.4 ng/mL |  |  |  |  |
| recombinant sCD27 containing 6x his-Tag at the carboxyl terminus (from UniProt P26842 20-189) (receptor) |  | 79 peptides | 44 peptides | 14 peptides | 5 peptides |
